Data as given in US20160251436A1 (PD 1 ACQUISITION GROUP, published 2016).
Changes are numbered by the printed parent chain. Values belong to the binder of their own block, whether it stands above or below them.

Tests used:
[1] = target: T1, human Programmed Death-1 (PD-1) expressed on the cell surface (human, UniProt Q15116 25-288); test: cell-based or functional assay
[2] = target: T1, human Programmed Death-1 (PD-1) …; test: cell-based or functional assay; remark: listed apart in the source
[3] = target: T1, human Programmed Death-1 (PD-1) …; test: cell binding, HEK293 cells expressing human PD-1, fluorescent anti-mouse secondary
Method: Recombinant antibodies from cultured supernatants were also used in cell-based binding studies. HEK293 cells were transfected (Qiagen, SuperFect) with expression plasmids encoding the Ig heavy and light chains of anti-PD-1 antibodies. After 3-5 days, recombinant antibodies in the supernatants of transfected cells were harvested. Stable HEK293 cells expressing human PD-1 or primary cells were used for the cell-based binding confirmation studies. Antibodies from cultured supernatants were assessed for binding to cell surface PD-1 using fluorescently labeled anti-mouse IgG (polyclonal) antibody (Jackson Immunoresearch).
In both studies, commercially available mouse anti-PD-1 antibody and isotype control mouse IgG1 […] were used as controls. […] Strong binding is denoted as “+++”, medium binding is denoted as “++”, and weak binding is denoted as “+”.

[4] = target: T2, PD-1-HIS (human, UniProt Q15116); test: ELISA, supernatant of transfected HEK293 cells on PD-1-HIS(tag), OD 450 nm, average of two experiments
T2 construct: soluble extracellular domain; May be the same protein as m2; also called PD-1-HIS(tag); PD-1-His Tag (Sino Biological #10377-H08H-50)

[5] = target: T3, soluble extracellular domain of human PD-1 (human, UniProt Q15116 25-170); test: BLI (ForteBio Octet Red), antibody on the biosensor, soluble PD-1 ECD as analyte
T3 construct: extracellular domain
Method: Biophysical characteristics of certain anti-PD-1 antibodies were analyzed by biolayer interferometry (BLI), using the ForteBio Octet Red system (Pall Corporation, Menlo Park, Calif.). The antibodies were immobilized on BLI biosensors and then incubated with the soluble extracellular domain of human PD-1. Using standard biophysics methods, apparent on-rates and off-rates were then inferred for PD-1 with anti-PD-1 antibodies.

T1 sequence (Q15116 25-288): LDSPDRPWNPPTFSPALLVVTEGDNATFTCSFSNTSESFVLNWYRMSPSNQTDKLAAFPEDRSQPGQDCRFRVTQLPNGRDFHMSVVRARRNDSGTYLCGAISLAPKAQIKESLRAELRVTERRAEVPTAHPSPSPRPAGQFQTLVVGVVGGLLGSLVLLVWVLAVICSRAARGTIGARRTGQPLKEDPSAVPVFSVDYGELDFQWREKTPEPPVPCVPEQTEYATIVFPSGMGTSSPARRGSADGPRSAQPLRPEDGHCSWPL
T3 sequence (Q15116 25-170): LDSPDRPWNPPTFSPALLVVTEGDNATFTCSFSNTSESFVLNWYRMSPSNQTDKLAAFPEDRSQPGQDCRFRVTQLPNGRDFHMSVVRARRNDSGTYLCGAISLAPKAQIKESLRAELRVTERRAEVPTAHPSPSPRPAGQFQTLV
T2 sequence (Q15116 25-167 limits assumed): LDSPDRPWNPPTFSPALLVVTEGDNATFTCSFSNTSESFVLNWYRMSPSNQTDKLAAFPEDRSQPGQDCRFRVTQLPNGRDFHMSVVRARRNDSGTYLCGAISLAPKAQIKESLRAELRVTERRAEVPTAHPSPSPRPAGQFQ

B1: 388D4-2 (100388_D4_HC3 + 100389_D4_LC3) (antibody, V domains shown)
VH: EVQLVQSGAEVKKPGASVKVSCKASGYTFTDYEMHWVRQAPGQRLEWMGVIDPGTGGTAYNQKFQGRVTITADKSASTAYMELSSLRSEDTAVYYCTSEKFGSNYYFDYWGQGTLVTVSS
VL: DIVMTQTPLSSPVTLGQPASISCRSSQTIVHSDGNTYLEWYQQRPGQPPRLLIYKVSNRFSGVPDRFSGSGAGTDFTLKISRVEAEDVGVYYCFQGSHVPLTFGQGTKLEIK
Fold Induction IFN-γ (relative to isotype control; NSCLC biopsy cells, 20 µg/mL) [1]: 7.58 fold | Fold Induction IFN-γ (relative to anti-CD3 + anti-CD28 only; antibody at 5 ug/mL) [2]: 2.06 fold | Fold Induction IFN-γ (relative to anti-CD3 + anti-CD28 only; antibody at 10 ug/mL) [2]: 1.82 fold

B2: 388D4-3 (100388_D4_HC1 + 100389_D4_LC3) (antibody, V domains shown)
VH: B1 VH with R44G, V50I, I70M, A76T, A79V
VL: B1 VL
Fold Induction IFN-γ (relative to isotype control; NSCLC biopsy cells, 20 µg/mL) [1]: 7.2 fold

binding result [4]: binds
B3: 100388_C1VH6_100389_C1VK1 (antibody, V domains shown)
VH: EVQLQESGPELVKPGASVKIPCKASGYTFTDYNMDWVKQSHGKSLEWIGDIDPNNGGIIYNQKFKGKAALTVDKSSSTAYMELRSLTSEDTAVYYCTRWRSSMDYWGQGTSVTVSS
VL: DIVMTQSPSSLSASLGDRVTISCSASQDISSYLNWYQQKPDGTVKLLIYYTSSLHSGVPSRFSGSGSGTDYSLTISNLEPEDIATYYCQQYSELPWTFGGGTKLEIK
notes: Mouse variable regions; cloned into pFUSE-CHIg-mG1 (murine IgG1 Fc), expressed in HEK293; also called 388C16A
binding result [3]: binds

binding result [4]: binds
B4: 100392_H4VH9_100393_H4VK6 (antibody, V domains shown)
VH: B3 VH with M34V, I58T, I59F, A69T, Y80H, T97V
VL: B3 VL with D28G, S31N, S53N, N77D, E79A, E93Y
notes: Mouse variable regions; cloned into pFUSE-CHIg-mG1 (murine IgG1 Fc), expressed in HEK293
binding result [3]: binds

binding result [4]: binds
B5: 100392_C4VH5_100393_C4VK8 (antibody, V domains shown)
VH: B3 VH with Q39K, I58T, A69T, S77R, T97A
VL: B3 VL with M4I, D28G, S31N
notes: as for B4
binding result [3]: binds

binding result [4]: binds
B6: 100392_C5VH6_100393_C5VK7 (antibody, V domains shown)
VH: B3 VH with N55S, I58S, A69T, S77R, A79V, T97A
VL: B3 VL with D28G, S31H, S76R
notes: Mouse variable regions; cloned into pFUSE-CHIg-mG1 (murine IgG1 Fc), expressed in HEK293; also called 392C5A
binding result [3]: binds

binding result [4]: binds
B7: 100394_G1VH1_100395_G1VK4 (antibody, V domains shown)
VH: B3 VH with S40N, G57D, I58T, A69T, S77R, T97A
VL: B3 VL with D28G, S31N, K39R, E93N
notes: as for B4
binding result [3]: binds

binding result [4]: binds
B8: 100392_D2VH7_100393_D2VK6 (antibody, V domains shown)
VH: B3 VH with N55T, G57T, I58T, I59F, K63D, A69T, T97A, V112L
VL: B3 VL with S7T, D28G, S31Y, V44I, S52L
notes: as for B4
binding result [3]: binds

binding result [4]: binds
B9: 100388_C1VH6_100389_C1VK2 (antibody, V domains shown)
VH: B3 VH
VL: B3 VL with M4L, S7T, D28G, S31N, E93K
notes: Mouse variable regions; cloned into pFUSE-CHIg-mG1 (murine IgG1 Fc), expressed in HEK293; also called 388C16B
binding result [3]: binds

binding result [4]: binds
B10: 100392_C5VH6_100393_C5VK10 (antibody, V domains shown)
VH: B3 VH with N55S, I58S, A69T, S77R, A79V, T97A
VL: B3 VL with P8T, D28G, S31H, S76R
notes: Mouse variable regions; cloned into pFUSE-CHIg-mG1 (murine IgG1 Fc), expressed in HEK293; also called 392C5B
binding result [3]: binds

binding result [4]: binds
B11: 100394_D5VH9_100395_D5VK7 (antibody, V domains shown)
VH: B3 VH with K23R, T28I, I58T, G66D, A68T, A69T, S77R, T97A
VL: B3 VL with S7T, L11M, D28G, S31N, E93Y
notes: as for B4
binding result [3]: binds

binding result [4]: binds
B12: 100246_F7VH3_100247_F7VK2 (antibody, V domains shown)
VH: EVQLQESGPELVRPGASVKMSCKASGYTFTSYWMHWVKQRPGQGLEWIGMIDPYSSETSLNQKFKDKATLNVDKISNTAYMQLSSLTSEDSAVYFCARSRGNYAYDMDYWGQGTSVTVSS
VL: DIVLTQSTAIMSASPGEKVTLTCSASSGVNSNYLYWYQQKPGSSPKLWIYSTSNLASGVPARFSGSGSGTSYSLTISSVEAEDAASYFCHQWSSYPPTFGSGTKLEIK
notes: as for B4
binding result [3]: binds

binding result [4]: binds
B13: 100258_F6VH4_100259_F6VK1 (antibody, V domains shown)
VH: B12 VH with D52E, Y54S, I75S, F95Y, D106E
VL: B12 VL with L4M, S7T, I10T, G28S, L47V, V79M, I107L
notes: as for B4
binding result [3]: binds

binding result [4]: binds
B14: 100392_A6VH8_100393_A6VK5 (antibody, V domains shown)
VH: EVQLQESGAELVRPGASVTLSCKASGYTFTDYEIHWVKQTPVHGLEWIGAIDPETGGTAYNQKFKGKAILTADKSSSTAYMELRSLTSEDSAVYYCTSEKFGSSYYFDYWGQGTTFTVSS
VL: DIVMTQSTLSLPVSLGDQVSISCRSSQSIVHSDGNTYLEWYLQKPGQSPNLLIYKVSNRFSGVPDRFSGSGSGTDFTLKISRVEAEDLGVYYCFQGSHVPLTFGAGTKLELK
notes: as for B4
binding result [3]: binds

binding result [4]: binds
B15: 100258_C1VH4_100259_C1VK1 (antibody, V domains shown)
VH: EVQLQESGAELVMPGASVKMSCKASGYTFTDYWMHWVKQRPGQGLEWIGAIDTSDSYTSYHQNFKGKATLTEDESSSTAYMQLSSLTSEDSAIYYCARRDYGGFGYWGQGTTLTVSS
VL: DIVITQSPLSLPVGLGDQASISCRSSQSLVHSNGNTYLHWYLQKPGQSPKLLIYKVSNRFSGVPDRFSGSGSGTDFTLKISRVEAEDLGVYFCSQSTHVPYTFGGGTKLEIK
notes: as for B4
binding result [3]: binds

Kd [5]: 8.2 nM | koff [5]: 0.00226 s⁻¹ | kon [5]: 275000 M⁻¹ s⁻¹
B16: 100413_D2VH9_100414_D2VK6 (antibody, V domains shown)
VH: EVQLQESGPDLVKPSQSLSLTCTVTGYSITSGYSWHWIRQFPGNKLEWMGFIHYSGDTNYNPSLKSRFSITRDTSKNQFFLHLNSVTPEDTATYYCASPSRLLFDYWGHGTTLTVSS
VL: DIVMTQSPSSLTVTAGEKVTMSCKSSQSLLNSGTQKNYLTWYQQKPGQPPKLLIYWASTRESGVPDRFTGSGSGTDFTLTISSVQAEDLAVYYCQNDYSYPLTFGAGTKLEIK
notes: as for B4

B17: 244C8-1 (100244_C8_HC1 + 100245_C8_LC1) (antibody, V domains shown)
VH: QVQLVQSGAEVKKPGASVKVSCKASGYTFTSYWMHWVRQAPGQGLEWMGMIDPSNSETSLNQKFQGRVTMTVDKSTNTVYMELSSLRSEDTAVYYCARSRGNYAYEMDYWGQGTLVTVSS
VL: EIVLTQSPATLSLSPGERATLSCRASSSVSSNYLYWYQQKPGQAPRLLIYSTSNRATGIPARFSGSGSGTDYTLTISSLEPEDFAVYYCHQWSSYPPTFGQGTKLEIK
Fold Induction IFN-γ (relative to isotype control; NSCLC biopsy cells, 20 µg/mL) [1]: 8.04 fold

B18: 244C8-3 (100244_C8_HC2 + 100245_C8_LC1) (antibody, V domains shown)
VH: B17 VH with Q1E, M70L, T71N, V79A
VL: B17 VL
Fold Induction IFN-γ (relative to isotype control; NSCLC biopsy cells, 20 µg/mL) [1]: 7.79 fold
